In publication PMC7070470, “Thermostable Tannase from Aspergillus Niger and Its Application in the Enzymatic Extraction of Green Tea” (Molecules, 2020) one finds Km and kcat data, which are given here for one protein.

Substrate in the data set: CCCOC(=O)c1cc(O)c(O)c(O)c1
Nature of the data set: purified protein. In kind it is biochemical, Aspergillus niger. Conditions: standard assay condition.

B1: rAntan1 (tannase from A. niger FJ0118, Antan1 without signal peptide) (Aspergillus niger CBS 513.88) (protein)
chain: ATPSTLAELCTDSIVKAALPPSEFIQGITIDSDSVTTEVVTNSSVSSEFYPSATINYCNVTFAYSHDGIDGDQVLLEIWLPAPTDFQNRWLSTGGGGYAINSGDQSLPGGVMYGAASGMTDGGFGGFSNNADTAMLLANGTLDYETLYMFAYKAHRELSLIGKALTRNVYGMSDSDKLYAYYQGCSEGGREGWSQVQRFGDEWDGAIIGAPAFRWSFQQTQHLYSNVVEKTLDYYPPPCELDKIVNETIAACDAMDGKVDWVVARTDLCLLDFDISTIEGKPYSCAASRGTPAQNGTVSAKGIEVAKTIINGLHDSQGRRVYFSYQPTAAFDDAETQYNSTTGQWGLDIDQLGGEYIALLVDKNGTTLDSLDGVTYDTLKDWMISGLQEYYSTLQTTWPDLTPFHEAGGKVIHFHGDADFSIPTAASIRYWESVRSIMYPNQDYNSSAEALNEWYRLYTVPGAGHCATNDAMPNGPFPQTNMAVMIDWVENGVVPTTLNATVLQGENEGQNQQLCAWPLRPLWTNNGTTMECVYNQRSIDSWHYDLDAVPMPVY
notes: mature form, predicted 20-residue signal peptide removed; secreted from Pichia pastoris SMD1168 (pPIC9K), DEAE-Sepharose purified; 1725 bp ORF, 575 residues printed
Consider B1, for which the Km was 73 µM. Further, the kcat (substrate range printed as 0.05–1.0 M) was determined as 1060 s⁻¹.

The Km is the substrate concentration at which the rate is half of its maximum. Usually kcat stands for the number of substrate molecules converted per active site and unit of time at saturation.
